This is an account of results in publication PMC8867384 (Neuron, 2020).

Holding throughout (experiment): cryo-EM structure
In experiment [1] the target is native Torpedo nicotinic acetylcholine receptor (Tetronarce californica (formerly Torpedo californica)) (UniProt P02710).
The target of experiment [2] is T1, Torpedo nicotinic acetylcholine receptor δ subunit (Tetronarce californica (formerly …, UniProt P02718 22-522, glycosylated (site not given))).
T1 sequence (looked up): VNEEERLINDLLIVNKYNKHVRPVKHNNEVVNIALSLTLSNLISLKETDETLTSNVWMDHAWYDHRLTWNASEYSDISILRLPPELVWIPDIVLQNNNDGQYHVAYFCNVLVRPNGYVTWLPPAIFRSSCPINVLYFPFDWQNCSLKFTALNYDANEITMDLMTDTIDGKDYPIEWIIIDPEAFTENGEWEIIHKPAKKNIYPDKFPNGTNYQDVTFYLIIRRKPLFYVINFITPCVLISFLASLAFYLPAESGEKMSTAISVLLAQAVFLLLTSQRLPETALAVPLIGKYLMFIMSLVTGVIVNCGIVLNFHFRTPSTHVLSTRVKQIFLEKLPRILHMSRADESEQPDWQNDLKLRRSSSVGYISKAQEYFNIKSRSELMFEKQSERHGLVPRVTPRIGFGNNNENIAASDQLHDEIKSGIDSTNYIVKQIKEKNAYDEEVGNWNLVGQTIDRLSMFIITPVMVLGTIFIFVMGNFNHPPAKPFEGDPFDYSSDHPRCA

Experiment [3] deals with Torpedo nicotinic acetylcholine receptor α subunit (Tetronarce californica (formerly …, UniProt P02710 25-461)).
Experiment [4] concerns the target T2, Torpedo nicotinic acetylcholine receptor γ subunit (Tetronarce californica (formerly …, UniProt P02714 18-506)).
T2 sequence (looked up): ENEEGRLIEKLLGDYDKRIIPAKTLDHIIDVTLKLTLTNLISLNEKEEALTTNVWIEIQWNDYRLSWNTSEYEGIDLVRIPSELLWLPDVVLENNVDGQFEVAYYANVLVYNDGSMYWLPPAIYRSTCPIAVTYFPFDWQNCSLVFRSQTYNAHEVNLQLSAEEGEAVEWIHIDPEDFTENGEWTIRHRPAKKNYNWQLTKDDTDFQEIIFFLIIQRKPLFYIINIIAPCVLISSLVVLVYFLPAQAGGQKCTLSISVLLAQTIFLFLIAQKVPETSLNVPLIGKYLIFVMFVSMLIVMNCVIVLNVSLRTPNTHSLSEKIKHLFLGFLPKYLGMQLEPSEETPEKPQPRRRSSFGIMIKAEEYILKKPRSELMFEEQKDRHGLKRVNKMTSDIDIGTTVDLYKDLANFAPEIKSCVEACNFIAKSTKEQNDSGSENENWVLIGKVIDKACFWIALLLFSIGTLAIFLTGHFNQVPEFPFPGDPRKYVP

Chain of Torpedo nicotinic acetylcholine receptor α subunit (Tetronarce californica (P02710 25-461): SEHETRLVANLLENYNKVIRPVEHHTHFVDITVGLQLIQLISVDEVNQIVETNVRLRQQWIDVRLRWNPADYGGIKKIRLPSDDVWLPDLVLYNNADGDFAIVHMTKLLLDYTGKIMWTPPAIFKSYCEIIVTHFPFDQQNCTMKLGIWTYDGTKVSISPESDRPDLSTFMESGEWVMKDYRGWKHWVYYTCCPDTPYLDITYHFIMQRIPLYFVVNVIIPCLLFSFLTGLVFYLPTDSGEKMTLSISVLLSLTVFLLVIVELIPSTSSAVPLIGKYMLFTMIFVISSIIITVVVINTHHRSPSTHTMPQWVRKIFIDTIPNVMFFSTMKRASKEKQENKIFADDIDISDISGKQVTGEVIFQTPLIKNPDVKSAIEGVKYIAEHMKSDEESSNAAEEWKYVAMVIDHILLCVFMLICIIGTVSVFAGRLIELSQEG
Chain of native Torpedo nicotinic acetylcholine receptor (Tetronarce californica (formerly Torpedo californica)) (P02710 25-461, chain 1 of 2): as the sequence (P02710 25-461) above
Chain of native Torpedo nicotinic acetylcholine receptor (Tetronarce californica (formerly Torpedo californica)) (P02712 25-493, chain 2 of 2, further chain): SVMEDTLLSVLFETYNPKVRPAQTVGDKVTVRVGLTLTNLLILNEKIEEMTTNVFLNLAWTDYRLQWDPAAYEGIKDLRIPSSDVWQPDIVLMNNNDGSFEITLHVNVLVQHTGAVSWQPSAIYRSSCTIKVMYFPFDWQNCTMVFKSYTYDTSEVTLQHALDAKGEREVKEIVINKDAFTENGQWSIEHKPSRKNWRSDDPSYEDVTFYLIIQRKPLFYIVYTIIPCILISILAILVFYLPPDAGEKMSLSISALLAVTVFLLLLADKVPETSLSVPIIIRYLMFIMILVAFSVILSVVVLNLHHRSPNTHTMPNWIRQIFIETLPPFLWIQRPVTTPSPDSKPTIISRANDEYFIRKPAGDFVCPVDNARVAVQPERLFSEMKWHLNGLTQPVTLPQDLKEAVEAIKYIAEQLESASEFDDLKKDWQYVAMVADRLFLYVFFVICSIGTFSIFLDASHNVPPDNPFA

For the molecule “α-bungarotoxin (from UniProt P60615 22-95) (natural protein)”, the stoichiometry N in experiment [1] came out at 2.

B1: α-bungarotoxin (natural protein)
chain: IVCHTTATSPISAVTCPPGENLCYRKMWCDAFCSSRGKVVELGCAATCPSKKPYEEVTCCSTDKCNPHPKQRPG
Turning to B1, the binding result in experiment [2], in experiment [3] and in experiment [4] was “binds” throughout.

Usually stoichiometry N stands for the number of molecules, sites or subunits per partner or assembly.
